Assay [1] has as its target Endogenous mouse SIRPα of wildtype BALB/c mice (mouse (BALB/c)) (UniProt P97797). The experiment in a line: flow cytometry; CD47 protein on peritoneal cavity cells of wildtype BALB/c mice, detected with human anti-CD47 antibody and AF647 anti-hIgG. Background: Flow cytometry measures light scatter and fluorescence of single cells or particles in a stream.
Assay [2] deals with Endogenous mouse SIRPα of wildtype C57BL/6 mice (mouse (C57BL/6)) (UniProt P97797). Put plainly: flow cytometry; CD47 protein on peritoneal cavity cells of wildtype C57BL/6 mice, detected with human anti-CD47 antibody and AF647 anti-hIgG.

UniProt P97797, sequence (P97797 32-513): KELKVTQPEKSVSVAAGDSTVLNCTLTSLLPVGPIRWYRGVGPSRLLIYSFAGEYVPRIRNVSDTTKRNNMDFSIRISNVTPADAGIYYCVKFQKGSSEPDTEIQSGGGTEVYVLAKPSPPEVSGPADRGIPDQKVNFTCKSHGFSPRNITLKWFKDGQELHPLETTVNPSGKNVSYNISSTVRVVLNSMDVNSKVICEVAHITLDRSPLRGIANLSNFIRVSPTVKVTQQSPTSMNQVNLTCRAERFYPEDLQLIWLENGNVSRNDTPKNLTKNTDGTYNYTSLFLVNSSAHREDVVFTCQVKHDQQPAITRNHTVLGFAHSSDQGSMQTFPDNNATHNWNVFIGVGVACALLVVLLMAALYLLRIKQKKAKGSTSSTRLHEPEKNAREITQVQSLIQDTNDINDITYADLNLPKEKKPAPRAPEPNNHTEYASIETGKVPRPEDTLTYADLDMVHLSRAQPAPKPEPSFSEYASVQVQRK

As to “Mouse CD47 proteins (added to peritoneal cavity cells, Example 16) (ligand)”, the geometric mean of flow cytometry signal in assay [1] and in assay [2] was 100 throughout.

The values above are taken from patent US20210120790A1.
